In patent US20130065819A1:

Biological target: HIV Tat transcription factor (HIV)
Assay: cell-based or functional assay

Substance: human TOE1 (Target of Egr1) (from UniProt Q96GM8 1-510)
- decrease in Tat driven transactivation of the HIV LTR/TAR luciferase reporter in HeLa cells: 50 to 80%
